# Measurements as given in PMC8292354, “Molecular insights into the endoperoxide formation by Fe(II)/α-KG-dependent oxygenase NvfI” (Nature Communications, 2021).
# Key:
# [1] = test system: COC(=O)[C@@H]1C(=O)C(C)=C2O[C@@]3(C[C@]2(C)[C@H]1C)[C@@H](C)CC[C@H]1C(C)(C)OC(=O)CC[C@@]13C; experiment: purified protein; conditions: 50 mM HEPES pH 7.5, 1 μM FeSO4, 500 μM ascorbate, 500 μM α-KG, 30 °C, 2 min, 0.1 μM enzyme
# NvfI = target: T1, NvfI (Aspergillus novofumigatus, UniProt A0A2I1BSX0); experiment: X-ray crystal structure, […] Å; assay type: binding; conditions: bidentate Fe ligand; binary (state I, monomer B) and ternary complex with asnovolin A (state III, monomer A)
# T1 construct: recombinant from pET28a in E. coli Rosetta 2(DE3) pLysS, Ni-NTA purified, MonoQ and Superdex 200; monomer in solution, apparent 34 kDa
# T1 sequence (A0A2I1BSX0 whole entry): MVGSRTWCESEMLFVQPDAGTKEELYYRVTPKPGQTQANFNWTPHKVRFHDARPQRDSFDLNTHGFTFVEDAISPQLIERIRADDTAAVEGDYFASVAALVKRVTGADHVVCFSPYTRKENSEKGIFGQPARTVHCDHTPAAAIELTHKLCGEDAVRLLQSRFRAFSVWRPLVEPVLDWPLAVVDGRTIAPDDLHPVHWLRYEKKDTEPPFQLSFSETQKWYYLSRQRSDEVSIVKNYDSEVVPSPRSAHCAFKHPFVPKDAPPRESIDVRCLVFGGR
Compound,Km [1] [µM],kcat [1] [s⁻¹],"X-ray crystal structure, 1.9 Å (NvfI)"
NvfI (Aspergillus novofumigatus IBT 16806),25.9 ± 7.2,0.29 ± 0.04,
O=C(O)CCC(=O)C(=O)O [α-KG],,,octahedral iron-center is coordinated by the bidentate α-KG and a water molecule
